Where “and” joins values, the source holds several entries; their conditions need not be identical. Identical values can stand only once.
Target: the molecule itself
Assay: native gel or EMSA; Blue Native PAGE, purified recombinant non-tagged proteins in 1 x PBS, 1 mM DTT, 1 mM ATP; 4-16% Bis-Tris gels, cold room, Coomassie staining

Row | Protein | stoichiometry N
1 | UBXD9, full length, GST tag cleaved (natural protein, D. discoideum, UniProt Q54X06 1-573, looked up, The cleaved state is stated for the Blue Native PAGE; also called full-length UBXD9; source: E. coli XL1 Blue or ArcticExpress, purified, liberated from the beads with PreScission protease) MSSIHIIYKTGKTTVPVIASTVMMEVLKKACQYFKIDDSRFQLMYGSTYVNLSLPFRLSGIPNLSRVTIMEKKGASISTVKIAIQMDDGKRFQSNFKTSSTLWDILLTFETEQNLSLTKRFNDVNQYIEPVVTILNREISTIESLQKSSLASINVNEASLIKLTFKQTDRTNEEVLPIIVSYQSPSTPTESPTTTTTTTTTTTTNNTTKEESPKTTNSPTNSESSTKSQNSSGSQQSPIIISPPTQQSTSSDVSTPTMDIDSPLVKNVEKSPISDLGLNPSSNIPLPDKTYNNETTTTTTTTSNNDVQVSTPPKIATMDHKDRELLVYTPSNNQVDPKSIRHNEKMTEEDIKRLVEANKRVKKEKEEFDSVLRTKAMREREAYKKHKNFSTSIIRIVFPGGQKILEMKFLIREKISNLLKYINEYILAQPNDSVYLYTTPPNKTLDLNTTFLKEGLFPRAKIFLGVSPGTTLIFSELVNELIEESNNKNNNNNNNNNTTTTTTSTISQEELDKQEEEQERIEEQMKIEEEKQLKLEDEQEKERQRALRSMFNNEKEGDSQKRPVPKWFTAGKK | 6
2 | p97 (valosin-containing protein), D. discoideum, recombinant (enzyme, UniProt P90532 1-793, looked up, AAA+ ATPase p97 (VCP), D. discoideum; purification as in Rijal et al., 2016; Whether p97 was made as a GST fusion and cleaved is not clearly said; also called VCP; source: E. coli XL1 Blue or ArcticExpress, purified) MATIEDTSKDNNNPILERKKAPNRLFVEEAINDDNSVVTLNPETMDQLQFFRGDTLLIKGKKRRDTVCIVLSDPTIDPSKIRMNKVVRNNLRVRLGDMISVHQCSDVKYGKRIHVLPIDDTIEGLSGNLFDLYLKPYFLEAYRPVRKGDLFLVRGGMRAVEFKVVETDPGEYCIVAPETFIHCEGEAVKREDEDRLDEVGYDDIGGVRKQLGQIRELVELPLRHPQLFKNIGVKPPKGILLYGPPGCGKTMIARAVANETGAFFFLINGPEIMSKLAGESESNLRKAFEEAEKNAPSIIFIDEIDSIAPKREKTQGEVERRIVSQLLTLMDGLKSRAHVIVMGATNRPNSIDPALRRFGRFDREIDITIPDATGRLEIMRIHTKNMKLDETVDLEAVANETHGYVGADLAALCTESALQCIREKMDVIDLEDETISAEILESMSVTQDHFRTALTLSNPSALRETVVEVPTTTWEDIGGLEGVKRELRETVQYPVEHPEKFRKFGMQPSKGVLFYGPPGCGKTLLAKAIANECQANFISIKGPELLTMWFGESEANVRELFDKARQAAPCVLFFDELDSIARSRGSSQGDAGGAGDRVINQILTEMDGMNAKKNVFIIGATNRPDIIDPAILRPGRLDQLIYIPLPDLPSRVAILKACLNKSPVAKDVDLEFLGQKTQGFSGADLTEICQRACKLAIRESIEKDIESTKARQESGDTKMEDDSVDPVPEITRDHFQEAMRSARRSVSDNDIRKYESFAQTLVQSRGLGNNFKFPDQESSGQFNQDQSDDLFSN | 6 and 2
